Source: patent US20150098945A1 (Daiichi Sankyo, published 2015)

Legend:
[1] = biological target: T1, mouse ROBO4 (pCI-mROBO4-transfected HEK293 cells) (mouse, UniProt Q8C310 28-1012); experiment: flow cytometry (FC500), HEK293 cells transfected with pCI-mROBO4, FITC goat anti-human IgG Fc; control histogram IgG (human IgG)
T1 sequence: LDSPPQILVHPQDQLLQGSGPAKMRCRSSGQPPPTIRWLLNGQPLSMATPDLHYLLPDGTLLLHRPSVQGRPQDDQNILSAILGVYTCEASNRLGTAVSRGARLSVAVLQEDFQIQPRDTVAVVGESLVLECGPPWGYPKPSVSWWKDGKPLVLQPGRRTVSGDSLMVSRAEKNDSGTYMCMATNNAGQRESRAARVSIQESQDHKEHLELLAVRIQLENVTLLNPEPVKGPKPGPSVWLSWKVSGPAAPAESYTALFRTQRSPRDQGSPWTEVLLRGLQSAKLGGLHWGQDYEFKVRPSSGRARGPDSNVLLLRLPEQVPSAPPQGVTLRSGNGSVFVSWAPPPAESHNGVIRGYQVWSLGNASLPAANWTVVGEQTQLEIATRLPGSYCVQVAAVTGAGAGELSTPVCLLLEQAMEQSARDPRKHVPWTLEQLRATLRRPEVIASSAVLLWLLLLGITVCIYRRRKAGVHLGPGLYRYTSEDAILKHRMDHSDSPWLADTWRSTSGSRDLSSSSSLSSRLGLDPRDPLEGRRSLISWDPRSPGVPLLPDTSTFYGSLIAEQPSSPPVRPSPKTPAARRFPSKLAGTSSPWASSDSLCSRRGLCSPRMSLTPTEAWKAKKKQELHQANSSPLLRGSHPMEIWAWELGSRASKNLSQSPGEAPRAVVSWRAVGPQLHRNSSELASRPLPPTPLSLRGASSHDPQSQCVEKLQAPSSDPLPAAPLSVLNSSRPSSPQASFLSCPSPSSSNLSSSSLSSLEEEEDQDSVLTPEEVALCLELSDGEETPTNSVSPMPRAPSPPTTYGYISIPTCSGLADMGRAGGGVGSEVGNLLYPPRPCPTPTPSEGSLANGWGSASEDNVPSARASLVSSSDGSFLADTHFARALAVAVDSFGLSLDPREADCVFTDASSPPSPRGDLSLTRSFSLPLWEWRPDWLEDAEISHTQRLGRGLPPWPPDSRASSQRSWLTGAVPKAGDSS

[2] = biological target: T2, N-terminal FLAG-tagged cynomolgus monkey ROBO4, cynoROBO4-2 (pCI-FLAG-cynoROBO4-2) (cynomolgus monkey, UniProt Q8WZ75 28-1007 (human entry)); experiment: flow cytometry (FC500), HEK293 cells transfected with pCI-FLAG-cynoROBO4-2, antibody at 10 µg/mL, FITC goat anti-human IgG Fc; control histogram IgG (human IgG)
T2 chain: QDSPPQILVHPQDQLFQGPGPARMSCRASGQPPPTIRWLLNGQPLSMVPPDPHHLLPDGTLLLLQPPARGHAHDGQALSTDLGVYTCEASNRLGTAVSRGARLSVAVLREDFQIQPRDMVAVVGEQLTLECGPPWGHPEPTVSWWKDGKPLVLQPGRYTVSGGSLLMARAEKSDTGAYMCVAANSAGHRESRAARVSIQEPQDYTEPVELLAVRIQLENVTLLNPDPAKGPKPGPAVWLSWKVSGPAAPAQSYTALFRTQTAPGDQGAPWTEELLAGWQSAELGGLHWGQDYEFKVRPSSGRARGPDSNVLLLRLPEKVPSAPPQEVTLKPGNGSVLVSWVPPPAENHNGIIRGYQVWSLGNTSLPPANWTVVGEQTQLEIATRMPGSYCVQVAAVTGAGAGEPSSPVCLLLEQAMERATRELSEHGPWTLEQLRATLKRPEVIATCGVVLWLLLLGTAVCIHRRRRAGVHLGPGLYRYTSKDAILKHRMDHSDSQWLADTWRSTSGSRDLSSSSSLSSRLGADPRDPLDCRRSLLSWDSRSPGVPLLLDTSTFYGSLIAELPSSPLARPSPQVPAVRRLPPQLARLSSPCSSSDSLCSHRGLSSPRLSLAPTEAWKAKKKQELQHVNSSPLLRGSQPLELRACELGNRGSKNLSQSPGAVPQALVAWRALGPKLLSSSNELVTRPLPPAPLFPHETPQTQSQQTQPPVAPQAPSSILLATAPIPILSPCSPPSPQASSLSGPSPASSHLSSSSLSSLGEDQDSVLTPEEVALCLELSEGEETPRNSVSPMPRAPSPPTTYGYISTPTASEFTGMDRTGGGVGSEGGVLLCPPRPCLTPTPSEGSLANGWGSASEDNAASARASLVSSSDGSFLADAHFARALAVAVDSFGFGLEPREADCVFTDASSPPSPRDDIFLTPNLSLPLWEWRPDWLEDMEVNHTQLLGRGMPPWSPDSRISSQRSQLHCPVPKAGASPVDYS

B1: humanized MAb1 antibody H-2140 (antibody, human IgG2, kappa, V domains shown)
VH: EVQLVESGGGLVQPGGSLRLSCAASGFTFSTYAMSWVRQAPGKRLEWVATISQGGTYTYYPDSVKGRFTISRDNAKNTLYLQMNSLRAEDTAVYYCARLIYYDYLDYWGQGTLVTVSS
VL: DIVMTQSPLSLPVTLGEPASISCRSSQSLENSNGNTYLNWYLQKPGQSPQLLIYRVSNRFSGVPDRFSGSGSGTDFTLKISRVEAEDVGVYYCLQVTHVPWTFGPGTKVDIKR
notes: Human IgG2 / kappa constant regions; also called hMAb1-H4-type heavy chain + hMAb1-L1-type light chain
[1]
  binding result: no binding (tested: 10 µg/mL)

B2: humanized MAb1 antibody H-2143 (antibody, human IgG2, kappa, V domains shown)
VH: EVQLVESGGGLVQPGGSLRLSCAASGFTFSTYAMSWVRQAPGKRLEWVATISQGGTYTYYPDSVKGRFTISRDNAKNTLYLQMNSLRAEDTAVYYCARLIYYDYLDYWGQGTLVTVSS
VL: DIVMTQSPLSLPVTLGEPASISCRSSQSLENENKNLYLNWYLQKPGQSPQLLIYRVSNRFSGVPDRFSGSGSGTDFTLKISRVEAEDVGVYYCLQVTHVPWTFGPGTKVDIKR
notes: Human IgG2 / kappa constant regions; also called hMAb1-H4-type heavy chain + hMAb1-L2-type light chain
[2]
  binding result: binds
